# According to the nanobody polyreactivity screen of Harvey et al. (2022):
# Test: yeast display, Sf9 membrane polyspecificity reagent, FACS + sequencing; frameworks hold sequencing errors
# Summary of the method: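 Galactose induction of a Saccharomyces cerevisiae BJ5465 synthetic nanobody display library ran 36–48 hours. The cells were then stained for 1 hour at 4 °C with 10% biotinylated, detergent-solubilized Sf9 membrane reagent, pulled down on streptavidin microbeads and FACS-sorted into low and high (top ~1%) gates on expression and reagent-binding fluorescence. Labels for polyreactivity follow the gate of origin.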
row,Sequence,polyreactivity (PSR sort gate)
1,QVQLVESGGGLDQAGGSLRLSCAASGSTSPYYTMGWYRQAPGKERELVASINESGGSTYYADSVKGRFTISRDNAKNTVYLLMNSLKPEDTAVYYCNAEYTTPSYPVYRIDYYWFDYWGQGTQVTVSS,low polyreactivity
2,QVQLVESGGGLVQEGGSLRLSCAASGSIFTLYFMGWYRQAPGKERELVAAITWSGGSTYYADSVKGRFTISRDNAKNTVYLQMNSLKTEVTAVYYCNADVRWDSQDYYYWGQGTQVTVSS,low polyreactivity
3,QVQHVESGGGLVQAGGSLRLSCAASGSTFGGYTMGWSRQAPGTERELVASIRSGGSTYYADSVKGRFTISRDNAKNTVYLQMNSLKPEVTAVYYCAADGRRDRDYWGQGTQVTVSS,high polyreactivity
4,QVQLVESGGGLVQAGGSLRLSCAASGSIFGKYALGWYRQAPGIERELVAAISGRGGGTYYADSVKGRFTISRDNAKNTVYLQVNRLNPEDTGVYYCNAYYSRLRYDYWGQGTQVTVSS,high polyreactivity
5,QVQLVESGGGLVQAGGSLRLSCAASGSIFTQYAMGWYRQAPGKERELVAAISWTGGRTNYADSVKGRFTISRDTAKNTFYLQMNSLKPEDTSVYYCAATYLLRYCQGWKRMDYWGQGTQVTVSS,high polyreactivity
6,QVQLVESGGGLVQAGGTLRLSCAATGSTFPYNAMGWYRQAPGKERELVAAINSAGGTNYADSVKGRFTISRDNAKNTVYLQMNSLKPEDTAVYYCAADGSGYYDWYYYWGQGTQVTVSS,low polyreactivity
7,QVQHVESGGGLVQAGGSLRLSCAASGSTLGGYAMGWYRQAPGKERELVAAIRWRDGRTYYADSVKGRFTISRDNPKNTVYLQMNSLKPEDTAVYYCAAQYYLARVSFDYWGQGTQVTVSS,high polyreactivity
8,QVQLVESGGGLVQAGGSLRLSCDASGSTFYYNAMGWYRQAPGKERELVADISRGGSTYYADSVKGRFTISRDNAKNTVYLQMNSLKPEDTAVYDCAAQTYLLSQWWWFDIDYGYWGQGTQVTVSS,low polyreactivity
9,QVQLPGSGGGLVQAGGSLRLSCAASGYIFQNVPMGWTRQAPGKERDLVAGIDNGTSTNYADSVNGRFTISRDNAKNTVYLQMNSLKPEDTAVYYCAAAGQADDTLGYWGQGTQVTVSS,low polyreactivity
10,QVQLVESGGGLVQAGGSLRLSCAASGSTFTYYAMGWSRQAPGKERELVAVINKSGGRTNYADSVKGRFTISRDNPKNTVYLQMNSLKPEDTAVYYCNAYYTSFYTGDDYWGQGTQVTVSS,high polyreactivity
11,QVQLVESGGGLVQAGGSLRLSCAASGSIFHPYAMGWYRQAPGKEREFVAAITFRGSTYFADSVKGRFTISRDNAKITVYLQMNSLKPEDTAVYYCAARYHIFRRGSRNYDYWGQGTQVTVSS,high polyreactivity
12,QVQLVESGGGLVQAGGSLRLSCAASGRIFANNAMGWYRQAPGKERELVAAISWRSGGTYYADSVKGRFTISRDNAKNTVYLQMNSLKPEDTAVYYCARRSPHHGRDYWGQGTQVTVSS,low polyreactivity
13,QVQLVESWGGLVQAGGSLRLSCAASGLPSKLMLMVWYRQAPGKERELVAAISSSGGRTYYADSVKGRFTISRDNAKITVYLQMNSLKPEDTAVYYCAAYFPRTLFEFGYWGQGNQVTVSS,high polyreactivity
14,QVQLVESGGGLVQAGGSLRLSCAASGIIFKYYAMGSYRQAPGKERELVAAITRSGGSTYYADSVKGRFTISRDNAKNTVYLQMNSLKPVDTGVYYCAAQTGYSYGITWQFTKYNYWGQGTQVTVSS,low polyreactivity
15,QVQLVESGGGLVQAGGSLRLSCAASGRTFGLYSMGWYRQAPGKVRELVASIDWSDDN,low polyreactivity
16,QVQLVESGGGLVQAGGSLRLSCAASGSIFSAYGMGWYRQAPGKERELVAAITRSGGSTYYADSVKGRFTISRDNAKNTVYLQMNSLKPEDTAVYYCAAKSIIRPYAPRRDDMDYWGQGTQVTVSS,low polyreactivity
17,QVQLVESGGGLVQAGGSLRLSCAASGSIFPLYAMGWYRQAPGKERELDASITWSAGNTHYADSVKGRFTISRDNAKNTVYLQMNSLKPEDTAVYYCAADDLWLYYVDDLPINDFDYWGQGTQVTVSS,low polyreactivity
18,QVQLVESGGGLVQAGGSLRLSCAASRSTITYNAMGWYRQAPGKERELVAAISFSGGRTYYADSVKGRFTISRDNAKNIVYLHMNRLKPEDTAVYYCAKRYGASFYYWGQGTQVTVSS,high polyreactivity
19,QVQLVESGGGLVQAGGSLRLSCAASGRTFGWYAMGWYRQAPGKEREFVASINTIGGSTYYADSVKGRFTISRDNAKNTVYLQMNSLKPEDTAVYYCAAVGYVIPYDSVGYTTTDYYWGQGTQVTVSS,low polyreactivity
20,QVQLVESGGVLVQAGGSLRLSCAASGFTFSLYGMGWYRQAPGKEREFVAAIRSGGSTNYADSVKGRFTISRDNAKNTVYLQMNRLKPEDTAVYYCATDIHSVHNNRDKHDYDYWGQGTQVTVSS,low polyreactivity
21,QVQIVDSGGGLVQAGGSLSLSCAASGSTFRGYAMGWYRQAPGKERELVAAITGSGDRTRYADSVKGRFTISRDNAKNTVYLQKNSLKPADTAVNYCAKVWPHWAYYSWGQGTQVTLSS,high polyreactivity
